Results: publication PMC12704761, “RAD51AP1 is a versatile RAD51 modulator” (Proceedings of the National Academy of Sciences of the …, 2025)
Positions count from the first letter of the chain named. In names and notes the source's numbering stands.

B1: RAD51 recombinase (natural protein)
chain: MAMQMQLEANADTSVEEESFGPQPISRLEQCGINANDVKKLEEAGFHTVEAVAYAPKKELINIKGISEAKADKILAEAAKLVPMGFTTATEFHQRRSEIIQITTGSKELDKLLQGGIETGSITEMFGEFRTGKTQICHTLAVTCQLPIDRGGGEGKAMYIDTEGTFRPERLLAVAERYGLSGSDVLDNVAYARAFNTDHQTQLLYQASAMMVESRYALLIVDSATALYRTDYSGRGELSARQMHLARFLRMLLRLADEFGVAVVITNQVVAQVDGAAMFAADPKKPIGGNIIAHASTTRLYLRKGRGETRICKIYDSPCLPEAEAMFAINADGVGDAKD
notes: RAD51 recombinase, wild type; expressed from the pCH1-derived plasmid pJ9; In the cryo-EM samples it stood as a filament on ssDNA with Ca2+-ATP, Mg2+-ATP or Mg2+-ADP; the introduction speaks of the human genome and the discussion sets 'mouse proteins' of earlier work apart; source: E. coli BL21 (DE3), coexpressed with His-MBP-BRC4 and GroEL, purified (HisTrap, HiTrap Heparin, HiTrap Q)
B2: RAD51AP1 C29 (domain or fragment, UniProt Q96B01 324-352, looked up)
chain: SVKSPNQSLRLGLSRLARVKPLHPNATST
notes: RAD51AP1, C-terminal 29 residues; lacks Site-N, contains Site-M and Site-C; One of PDB 9QN8, 9QNA, 9QNB, 9QNC holds it; also called RAD51AP1 C29 fragment; RAD51AP1 C-terminal domain
B3: RAD51AP1 C59, wild type K300A; K303A; W304A; P306A; P307A (protein)
chain: SPSAESAKPAAVAAAASGGSRSSSSPLVVVSVKSPNQSLRLGLSRLARVKPLHPNATST

Tests used:
[1] = target: T1, RAD51AP1-H346A (Site-C mutant), full-length (UniProt Q96B01 1-352, H346A); experiment: BLI; RAD51AP1 with C-terminal hexahistidine tag on nickel-NTA biosensors, RAD51 2.5 µM to 39 nM, Octet Red, 25 °C, Kd from response against concentration, 1:1 model; settings: both partners purified
T1 construct: RAD51AP1 with H346A; source: expressed from a pET28 vector, purified (HisTrap, HiTrap Heparin, HiTrap Q, gel filtration); not shown: His6, C-terminal, kept
T1 sequence (looked up): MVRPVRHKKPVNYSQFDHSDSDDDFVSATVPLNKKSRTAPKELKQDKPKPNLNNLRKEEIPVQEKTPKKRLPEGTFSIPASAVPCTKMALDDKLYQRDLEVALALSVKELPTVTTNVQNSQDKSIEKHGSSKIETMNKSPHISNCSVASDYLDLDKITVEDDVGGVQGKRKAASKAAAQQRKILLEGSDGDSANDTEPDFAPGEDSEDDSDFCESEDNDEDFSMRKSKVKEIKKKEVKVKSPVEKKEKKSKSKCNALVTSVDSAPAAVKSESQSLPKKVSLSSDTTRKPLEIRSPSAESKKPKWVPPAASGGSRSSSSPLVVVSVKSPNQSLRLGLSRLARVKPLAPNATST

[2] = target: T2, RAD51AP1 (RAD51 associated protein 1), full-length wild type (UniProt Q96B01 1-352); experiment: as above; settings: both partners purified
T2 construct: RAD51AP1, synthetic gene from Invitrogen; printed residue numbers (H346); One of PDB 9QN8, 9QNA, 9QNB, 9QNC holds its modelled residues; Detailed protocols are in SI Appendix, Supplementary Methods; also called WT; source: expressed from a pET28 vector, purified (HisTrap, HiTrap Heparin, HiTrap Q, gel filtration); not shown: His6, C-terminal, kept
T2 sequence (looked up): T1 sequence (looked up) with A346H

[3] = target: T3, RAD51AP1 Site-NC double mutant, full-length (UniProt Q96B01 1-352, K300 to alanine | K303 to alanine | W304 to alanine | P306 to alanine | P307 to …); experiment: as above; settings: both partners purified
T3 construct: RAD51AP1 in which both Site-N (K300, K303, W304, P306, P307 to alanine) and Site-C (H346A) are mutated; also called Site-N and Site-C double mutant; source: expressed from a pET28 vector, purified (HisTrap, HiTrap Heparin, HiTrap Q, gel filtration); not shown: His6, C-terminal, kept
T3 sequence (looked up): T1 sequence (looked up) with K300A, K303A, W304A, P306A, P307A

[4] = target: T4, RAD51AP1 Site-N mutant, full-length (UniProt Q96B01 1-352, K300 to alanine | K303 to alanine | W304 to alanine | P306 to alanine | P307 to …); experiment: pull-down; His-tagged full-length RAD51AP1 (1 µM) immobilised on magnetic cobalt resin, RAD51 (1 µM) in pull-down buffer with ATP and Mg2+, 37 °C, 5 min; SDS-PAGE of supernatant and eluate; settings: both partners purified
T4 construct: RAD51AP1 with five conserved Site-N residues (K300, K303, W304, P306, P307) mutated to alanine; source: expressed from a pET28 vector, purified (HisTrap, HiTrap Heparin, HiTrap Q, gel filtration); not shown: His6, C-terminal, kept
T4 sequence (looked up): T1 sequence (looked up) with K300A, K303A, W304A, P306A, P307A, A346H

[5] = target: B1; experiment: cryo-EM structure; RAD51-ssDNA filaments formed with Mg2+-ATP (7 µM RAD51) mixed with C29 (28 µM); single particle analysis, 3.0 Å; settings: both partners purified
[6] = target: T5, RAD51 recombinase, Q06609; experiment: pull-down; settings: chain shown with the change; n = 3; parent: est. 54; read off a plot
T5 chain: B1 chain

B1 was tested, and the “fold decrease in binding affinity against wild-type RAD51AP1” value [1] was ~2.5 fold, the Kd [2] was ~600 nM and the “fold reduction in affinity against wild-type RAD51AP1” value [3] was ~4 fold. B1: binds [4].

B2: binds [5].

B3 showed a response [6] of 60%.
